Data on two molecules can be found in patent publication US20220033439A1 (SEOUL NATIONAL UNIVERSITY R AND DB FOUNDATION, published 2022).

The labels stand for the following.
B1: Mycobacterium tuberculosis toxin protein VapC26 (enzyme)
chain: MIIDTSALLAYFDAAEPDHAAVSECIDSSADALVVSPYVVAELDYLVATRVGVDAELAVLRELAGGAWELANCGAAEIEQAARIVTKYQDQRIGIADAANVVLADRYRTRTILTLDRRHFSALRPIGGGRFTVIP

Data set [1] concerns the molecule itself. Nature of the data set: crystal structure; VapC26 homodimer.
The target in data set [2] is B1. Description: size exclusion chromatography with multi-angle light scattering.
Data set [3] concerns the molecule itself. Description: crystal structure and size exclusion chromatography with MALS; VapB26 homodimer.

With B1, the binding result in data set [1] was “binds”.

B2: Mycobacterium tuberculosis antitoxin protein VapB26 (other)
chain: MDKTTVYLPDELKAAVKRAARQRGVSEAQVIRESIRAAVGGAKPPPRGGLYAGSEPIARRVDELLAGFGER
As for B2, the binding result in data set [2] and in data set [3] was “binds” throughout.
